Results: publication PMC7895384

How the values were obtained:
[1] = biological target: Six4-HA (HA-tagged Six4, Six4-3xHA) (Drosophila); assay: co-IP; two of the three tagged proteins co-expressed in S2 cells; graded concentrations (150mM to 1200mM) of NaCl in the 1% NP-40 lysis buffer (S7C-E Fig; lanes with two proteins of S7F Fig, % co-IP quantified from band intensities, n = 3)
[2] = biological target: Six4-HA (HA-tagged Six4, Six4-3xHA) (Drosophila); assay: co-IP; Six4-HA, Myc-Erm and Flag-PntP1 all three co-expressed in S2 cells; IP with anti-HA or anti-Flag antibody; 150mM or 1200mM NaCl; % co-IP quantified from band intensities, normalized by the IPed protein, n = 3 (S7F Fig)

% co-IPed Myc-Erm with the anti-HA antibody (1200mM NaCl, without Flag-PntP1) [1]: 6.7% | % co-IPed Myc-Erm with the anti-HA antibody (1200mM NaCl, Flag-PntP1 co-expressed) [2]: 13.6%
Substance: Myc-Erm (Myc-tagged Earmuff) (from UniProt Q9VQ56 1-611) (natural protein)
